Experimental data: the Immune Epitope Database (IEDB)

How the values were obtained:
HLA-A*02:01 [1] = assay: IEDB peptide-MHC binding, purified MHC/competitive/fluorescence; ≥ and ≤ were set here for values at or beyond the usual limits of such assays
HLA-A*24:02 [2] = assay: as above
HLA-A*30:01 = assay: IEDB peptide-MHC binding, purified MHC/competitive/radioactivity; filed as Kd, often an IC50 or EC50 that approximates it; ≥ and ≤ were set here for values at or beyond the usual limits of such assays
HLA-B*44:02 = assay: as above; details: source organism: Dengue virus 2 Jamaica/1409/1983
HLA-A*02:02 = assay: as above; details: source organism: Vaccinia virus WR
HLA-A*02:03 = assay: as above; details: source organism: Vaccinia virus WR
HLA-A*02:06 = assay: as above; details: source organism: Vaccinia virus WR
HLA-A*03:01 = assay: as above; details: source organism: Vaccinia virus WR
HLA-A*11:01 = assay: as above; details: source organism: Vaccinia virus WR
HLA-A*29:02 = assay: as above
HLA-A*31:01 = assay: as above; details: source organism: Vaccinia virus WR
HLA-A*33:01 = assay: as above
HLA-A*68:01 = assay: as above
HLA-A*02:01 [3] = assay: IEDB peptide-MHC binding, purified MHC/direct/fluorescence; filed as Kd, often an IC50 or EC50 that approximates it; ≥ and ≤ were set here for values at or beyond the usual limits of such assays; details: source organism: Hyphomonas neptunium
HLA-A*69:01 = assay: as above; details: source organism: Hyphomonas neptunium
HLA-A*01:01 = assay: IEDB peptide-MHC binding, purified MHC/competitive/radioactivity; filed as Kd, often an IC50 or EC50 that approximates it; ≥ and ≤ were set here for values at or beyond the usual limits of such assays
HLA-A*23:01 = assay: as above
HLA-A*24:02 [4] = assay: as above
HLA-A*26:01 = assay: as above
HLA-A*30:02 = assay: as above
HLA-B*51:01 = assay: IEDB peptide-MHC binding, purified MHC/competitive/fluorescence; filed as Kd, often an IC50 or EC50 that approximates it; ≥ and ≤ were set here for values at or beyond the usual limits of such assays
HLA-B*40:01 = assay: IEDB peptide-MHC binding, purified MHC/direct/fluorescence; filed as Kd, often an IC50 or EC50 that approximates it; ≥ and ≤ were set here for values at or beyond the usual limits of such assays; details: source organism: Influenza A virus (A/Netherlands/458/98 (H3N2))
[5] = source organism: Sudan ebolavirus
[6] = source organism: Zaire ebolavirus
[7] = source organism: Dengue virus 2 Jamaica/1409/1983
[8] = source organism: Vaccinia virus WR
[9] = source organism: SARS coronavirus Tor2
[10] = source organism: Dengue virus 1 Brazil/97-11/1997
[11] = source organism: Dengue virus 4 Philippines/H241/1956
[12] = source organism: Lassa virus GA391
[13] = source organism: Dengue virus 3 Martinique/1243/1999

AFFLYDRLA
IC50 (HLA-A*02:01 [1]; [5]): 35.8 µM | IC50 (HLA-A*24:02 [2]; [5]): ≥ 151 µM

AFWETKKNL
IC50 (HLA-A*02:01 [1]; [6]): ≥ 242 µM | IC50 (HLA-A*24:02 [2]; [6]): 2.48 µM

AGVLWDVPSP
Kd (HLA-A*30:01; [7]): 11900 nM

AICSAVPSHW
Kd (HLA-B*44:02): 181 nM

AIRAGYSIV
Kd (HLA-A*02:02): 1200 nM | Kd (HLA-A*02:03): 0.211 nM | Kd (HLA-A*02:06): 8.06 µM | Kd (HLA-A*30:01; [8]): 1.42 nM

ALEVLMSPCR
Kd (HLA-A*03:01): 328 nM | Kd (HLA-A*11:01): 6.33 µM | Kd (HLA-A*29:02; [8]): ≥ 38500 nM | Kd (HLA-A*31:01): 42.4 nM | Kd (HLA-A*33:01; [8]): 254 nM | Kd (HLA-A*68:01; [8]): 465 nM

ALTPPFHPY
Kd (HLA-A*02:01 [3]): 9 µM | Kd (HLA-A*69:01): ≥ 20 µM

AMGKPVPYCY
Kd (HLA-A*01:01; [9]): 1990 nM | Kd (HLA-A*23:01; [9]): ≥ 70 µM | Kd (HLA-A*24:02 [4]; [9]): ≥ 70.3 µM | Kd (HLA-A*26:01; [9]): ≥ 49.4 µM | Kd (HLA-A*29:02; [9]): 89.5 nM | Kd (HLA-A*30:02; [9]): 1.1 nM

AMQKESDDY
Kd (HLA-A*01:01; [9]): 2740 nM | Kd (HLA-A*23:01; [9]): ≥ 77.8 µM | Kd (HLA-A*24:02 [4]; [9]): ≥ 77.6 µM | Kd (HLA-A*26:01; [9]): ≥ 65.3 µM | Kd (HLA-A*29:02; [9]): 15500 nM | Kd (HLA-A*30:02; [9]): 126 nM

CPLVLDFII
Kd (HLA-B*51:01; source organism: Brucella abortus S19): 323 nM

DTSNPKTPKY
Kd (HLA-A*01:01; [9]): 194 nM | Kd (HLA-A*23:01; [9]): ≥ 70 µM | Kd (HLA-A*24:02 [4]; [9]): ≥ 70.3 µM | Kd (HLA-A*26:01; [9]): 1.26 µM | Kd (HLA-A*29:02; [9]): 367 nM | Kd (HLA-A*30:02; [9]): 48.9 nM

DYMTSMKRF
Kd (HLA-A*23:01; [10]): 0.791 µM | Kd (HLA-A*24:02 [4]; [10]): 0.214 µM

DYQGKTVWF
Kd (HLA-A*23:01; [11]): 0.805 µM | Kd (HLA-A*24:02 [4]; [11]): 0.763 µM

EGNETPGGY
Kd (HLA-A*01:01; [12]): ≥ 20900 nM | Kd (HLA-A*23:01; [12]): 0.174 µM | Kd (HLA-A*24:02 [4]; [12]): 1.21 µM | Kd (HLA-A*26:01; [12]): ≥ 77.9 µM | Kd (HLA-A*29:02; [12]): 18600 nM | Kd (HLA-A*30:02; [12]): ≥ 76900 nM

ELSPRWYFY
Kd (HLA-A*01:01; [9]): ≥ 35000 nM | Kd (HLA-A*23:01; [9]): 10.6 µM | Kd (HLA-A*24:02 [4]; [9]): 13.2 µM | Kd (HLA-A*26:01; [9]): 0.0157 µM | Kd (HLA-A*29:02; [9]): 70.3 nM | Kd (HLA-A*30:02; [9]): 790 nM

ETENILTVLL
Kd (HLA-A*01:01; [13]): 3840 nM | Kd (HLA-A*26:01; [13]): 16.2 µM

ETFLQSPPI
IC50 (HLA-A*02:01 [1]; [5]): ≥ 143 µM | IC50 (HLA-A*24:02 [2]; [5]): 13.9 µM

EVKSCHWPK
Kd (HLA-A*30:01; [7]): 166 nM | Kd (HLA-A*33:01; [7]): 7.23 nM | Kd (HLA-A*68:01; [7]): 70.6 nM

FEKEGYSLV
Kd (HLA-B*40:01): 118 nM

FPPEIINVI
Kd (HLA-B*51:01; source organism: Variola virus): 213 nM

FTSCELYHY
Kd (HLA-A*01:01; [9]): 1.73 nM | Kd (HLA-A*23:01; [9]): ≥ 38.1 µM | Kd (HLA-A*24:02 [4]; [9]): ≥ 35.8 µM | Kd (HLA-A*26:01; [9]): 0.811 µM | Kd (HLA-A*29:02; [9]): 3.57 nM | Kd (HLA-A*30:02; [9]): 365 nM

FYAYLRKHF
Kd (HLA-A*01:01; [9]): ≥ 78100 nM | Kd (HLA-A*23:01; [9]): ≥ 23.9 µM | Kd (HLA-A*24:02 [4]; [9]): ≥ 31.8 µM | Kd (HLA-A*26:01; [9]): ≥ 77.9 µM | Kd (HLA-A*29:02; [9]): ≥ 46000 nM | Kd (HLA-A*30:02; [9]): ≥ 125000 nM

GLAWIPYFG
IC50 (HLA-A*02:01 [1]; [6]): 0.134 µM | IC50 (HLA-A*24:02 [2]; [6]): 62.6 µM
